Laboratory results as given in patent US6719976B1, “Peptide-based immunotherapeutic agent for treating allergic diseases” (Meiji Milk Products Co., Ltd., priority 1996, dated 2004).

Legend:
[1] = tested on: rabbit anti-d epitope IgG; test: Positive control reactivity with rabbit anti-d epitope IgG; assay type: binding; details: blank: 112
Description: (§1) The six multi-epitope peptides (C.A.#1 through C.A.#6) obtained in Example 6 were dissolved in 0.2 M acetate buffer solution (pH 4.5). The solution was dispensed in quantities of 0.1 ml/well in a black plate (manufactured by Dainihon Pharmaceutical Co., Ltd.) then allowed to stand at 4° C. overnight. After the antigen solution was removed, the wells were washed three times with a washing solution and the serum (4-fold dilution) from 29 patients with cedar pollinosis and healthy subjects were each added to separate wells. The system was then reacted at 37° C. for 4 hours. After the sera were removed, the wells were washed three times with a washing solution then reacted with anti-human IgE antibody (made by Pharmacia Inc.) at room temperature overnight. After washing three times with a washing solution, a substrate solution containing 0.1 mM 4-methylumbelliferyl-, β-D-galacto-pyranoside/0.01 M phosphate buffer (pH 7.0), 0.1 M NaCl, 1 mM MgCl2, 0.1% NaN, and 0.1% BSA was added, and the solution was incubated at 37° C. for 2 hours. A solution of 0.1 M glycine/NaOH (pH 10.3) was added to the wells to terminate the reaction. Fluorescent intensity was measured using a fluorophotometer (Labsystems). For positive control to each multi-epitope peptide, biotin-labeled rabbit anti-d epitope IgG and peroxidase-labeled streptoavidin (made by Pierce Inc.) were reacted.

CBF1 mice = test: Inducing immune tolerance by administering cedar pollen allergen to mice; assay type: in vivo; details: 300 μg/mouse s.c. twice, then sensitized with 100 μg Cry j 1 + Alum; compared to PBS control group
Description: The detailed mechanism in hyposensitization therapy by which cedar pollen allergen is administered for the treatment is yet unknown. To clarify this mechanism, tests were conducted using mice. Cedar pollen allergen Cry j 1 was subcutaneously administered twice to five CBF1 female mice at intervals of 5 days in a dose of 300 μg/mouse. For control, the same dose of PBS was subcutaneously given to five other female mice. Five days later, the animals were sensitized by subcutaneous injection of 100 μg Cry j 1 together with Alum adjuvant. Ten days later, the lymphocytes were isolated to pool them as the lymphocytes from the control group and as the lymphocytes from the Cry j 1-administered mice. Cry j 1 was added to the pooled lymphocytes in doses of 0, 50 and 150 μg/ml. Incubation was performed for 3 days to collect the culture supernatant. In the control (PBS-administered) mouse group, IL-2 production increased as the concentration of Cry j 1 increased from 0 to 50 and 150 μg/ml. […] The results verify that currently implemented hyposensitization therapy using the cedar pollen allergen is efficacious.

[2] = tested on: spleen cells of CBF1 mice immunized with rCry j 2; test: Identifying T cell epitopes in CBF1 mice (spleen cell [3H] thymidine uptake); assay type: cell-based, mouse; details: peptides 0.115 μM; Cry j 1 50 μg/ml; rCry j 2 0.3 μg/ml
Description: Eight-week-old male CBF1 mice were boosted (i.p.) three times with 10 μg of recombinant Cry j 2 (rCry j 2) at intervals of two weeks together with an adjuvant (Imject Alum, manufactured by Pierce Inc.). One week after the final booster, the spleen cells (5×10^6 cells) were cultured together with each of the 74 kinds of Cry j 2 overlapping peptides (0.115 μM) consisting of 15 residues in 0.2 ml RPMI medium (supplemented with 10% FCS, 2 mM L-glutamine, 50 U/ml penicillin and 50 μg/ml streptomycin) in each well of a 96-well plate(manufactured by Falcon Inc.). For control, the reactivities with PBS, 50 μg/ml of Cry j 1, and 0.3 μg/ml of rCry j 2 were also observed. Each reagent was distributed in three wells and incubated at 37° C. for 3 days in 5% CO2. For the last 6 hours, pulse labeling was performed with 0.5 μCi/well of [^3H] thymidine. The cells were collected on a glass filter using a cell harvester (Inoteck, Bertold Japan Co., Ltd.). After drying, the level of [^3H] thymidine taken up into the cells was determined using a liquid scintillation counter (TRI-CARB 4530, Packard Japan KK).

human IgE antibody = test: Reactivity of the multi-epitope peptides with human IgE antibody (fluorescence plate assay); assay type: binding
Description: as §1

[3] = tested on: T cell line of each patient specifically recognizing Cry j 1 or Cry j 2; test: T cell line proliferation response to overlapping peptides ([3H] thymidine uptake); assay type: cell-based, human; details: 18 patients with cedar pollinosis; stimulation index 2 or more
Description: Peripheral lymphocytes from 18 patients with cedar pollinosis were stimulated by cedar pollen allergen Cry j 1 or Cry j 2to establish the T cell line of each patient capable of specifically recognizing the respective allergen.
A mixture of 5×10^4 cells of the autologous B cell line treated with mitomycin C, 2 μM of an overlapping peptide, and 2×10^4 cells of the T cell line was incubated for 2 days in RPMI-1640 medium supplemented with 0.2 ml of 15% serum on a 96-well culture plate. After 0.5 μCi [^3H] thymidine was added to the medium, incubation was continued for a further 18 hours. After the cells were harvested on a glass filter using a cell harvester, the level of [^3H] thymidine taken up into the cells was determined with a liquid scintillation counter. If the stimulation index is 2 or more, we consider that the added peptide is recognized as an antigenic peptide. The stimulation index means a value obtained by dividing the level of [^3H] thymidine taken up into the cells when the peptide was added by the level of [^3H] thymidine taken up into the cells when no peptide was added.
The HLA class II type is considered to vary in every patient. It is thus assumed that a T cell epitope to be recognized would vary depending on the HLA class II type. For this reason, the antigenic peptide that the patients recognized was mapped for the individual patient. […] On the allergen molecule, there are both regions that can be readily recognized and regions that can hardly be recognized, as a T cell epitope, depending on individuals. Moreover, since the proliferation rate of T cells varies depending on a T cell epitope, the epitope map alone makes it difficult to determine what antigenic peptide should be chosen to design the multi-epitope peptide.

B1: Cry j 1: major cedar pollen allergen, 353 amino acids, extracted and purified from cedar pollen (protein)
chain: DNPIDSCWRGDSNWAQNRMKLADCAVGFGSSTMGGKGGDLYTVTNSDDDPVNPAPGTLRYGATRDRPLWIIFSGNMNIKLKMPMYIAGYKTFDGRGAQVYIGNGGPCVFIKRVSNVIIHGLYLYGCSTSVLGNVLINESFGVEPVHPQDGDALTLRTATNIWIDHNSFSNSSDGLVDVTLTSTGVTISNNLFFNHHKVMLLGHDDAYSDDKSMKVTVAFNQFGPNCGQRMPRARYGLVHVANNNYDPWTIYAIGGSSNPTILSEGNSFTAPNESYKKQVTIRIGCKTSSSCSNWVWQSTQDVFYNGAYFVSSGKYEGGNIYTKKEAFNVENGNATPQLTKNAGVLTCSLSKRC
**Q.** With B1 as the molecule, how does the “fluorescent intensity with rabbit anti-d epitope peptide IgG” value [1] read?
**A.** 230

**Q.** And the “IL-2 production of lymphocytes restimulated with Cry j 1” value (CBF1 mice)?
**A.** obviously reduced

**Q.** And the “reactivity of spleen cells ([3H] thymidine uptake)” value [2]?
**A.** did not react

**Q.** What about the “fluorescent intensity (human IgE reactivity)” value (human IgE antibody; 14 subjects of 29) of the same molecule?
**A.** ≥ 100

**Q.** What about the “fluorescent intensity (human IgE reactivity)” value (human IgE antibody; five subjects of 29) of the same molecule?
**A.** nine

**Q.** What about the “fluorescent intensity (human IgE reactivity)” value (human IgE antibody; four subjects of 29) of the same molecule?
**A.** ≥ 10

**Q.** What about the “fluorescent intensity (human IgE reactivity)” value (human IgE antibody; six subjects of 29) of the same molecule?
**A.** ≥ 1,000

**Q.** And the “number of T cell epitopes on the molecule that each patient recognized, average” value [3]?
**A.** 9.8
